Test results as given in US20020102257A1 (published 2002).

Key:
[1] = target: RSV F protein, C-terminal truncated, secreted from recombinant baculovirus (respiratory syncytial virus) (UniProt P03420); assay: SPR (BIAcore), F protein amine-coupled, Mab injected 25-300 nM
[2] = target: RSV F protein, C-terminal truncated, secreted from recombinant baculovirus (respiratory syncytial virus) (UniProt P03420); assay: SPR (BIAcore), F protein amine-coupled, Kd = kd/ka
[3] = target: T1, RSV F protein, C-terminal truncated, secreted from recombinant baculovirus (respiratory syncytial virus, UniProt P03420 26-524); assay: SPR (BIAcore), F protein amine-coupled, Mab injected 25-300 nM
T1 construct: also called RSV F glycoprotein; RSV F antigen

Molecule | koff [1] [s⁻¹] | kon [1] [M⁻¹ s⁻¹] | t1/2 [1] [h] | Kd [2] [nM] | t1/2 [3] [h]
chimeric 1129 antibody (murine 1129 VH and VL joined to human C-gamma 1 and C-kappa) | 7.5e-05 | 50000 | 2.6 | 1.5 | –
murine monoclonal antibody MAb 1129 | – | 35000 | 0.48 | 11.4 | –
murine monoclonal antibody MAb 1308F (antibody, V domains shown) VH: EVQKQQSGAELVRPGALVKLSCKASGFNIKDYYIYWVKQRPEQGLEWIGWIDPENGNTVFDPLFQGKASITSDTSSNTAYLQLSSLTSEDTAVYYCAYYGTSSFDFWGQGTTLTVSS VL: DIKMTQSPSSMYVSLGERVTITCKASQDINRYLNWFQQKPGKSPKTLIHRANRLVDGVPSRFSGSGSGQEYSLTISSLEFEDMGIYYCLQFHEFPYTFGGGTKLEIL | – | – | – | – | 5.1
humanized 1129 antibody (CDR-grafted MAb 1129, human COR VH / K102 VL frameworks, human IgG1 kappa) (antibody, V domains shown) VH: QVTLRESGPALVKPTQTLTLTCTFSGFSLSTSGMSVGWIRQPPGKALEWLADIWWDDKKDYNPSLKSRLTISKDTSKNQVVLKVTNMDPADTATYYCARSMITNWYFDVWGAGTTVTVSS VL: DIQMTQSPSTLSASVGDRVTITCKCQLSVGYMHWYQQKPGKAPKLWIYDTSKLASGVPSRFSGSGSGTEFTLTISSLQPDDFATYYCFQGSGYPFTFGGGTKLEIK | – | – | – | – | 2.8
humanized 1308F antibody (CDR-grafted MAb 1308F, human HV3 VH / K102 VL frameworks, human IgG1 kappa) (antibody, V domains shown) VH: QVQLVQSGAEVKKPGASVKVSCKASGFNIKDYYIYWVRQAPGQGLEWIGWIDPENGNTVFDPKFNGRVTMTRDTSTSTVYMELSSLRSEDTAVYYCAYYGTSSFDFWGQGTTLTVSS VL: DIQMTQSPSTLSASVGDRVTITCKASQDINRYLNWYQQKPGKAPKLLIYRANRLVDGVPSRFSGSGSGTEFTLTISSLQPDDFATYYCLQFHEFPYTFGGGTKLEIL | – | – | – | – | 3.5
